According to PMC11865472, “Structures of TGF-β with betaglycan and signaling receptors reveal mechanisms of complex assembly and signaling” (Nature Communications, 2025):

Target: T1, inhibin A (InhA), mature heterodimer, unlabelled (UniProt P05111 233-366; P08476 311-426)
T1 construct: inhibin α subunit, residues 233-366 of NP_002182.1; inhibin βA subunit, residues 311-426 of NP_002183.1; The His and Strep tags stood on the two chains of the pro-inhibin; source: expi293F, secreted as pro-inhibin, purified by His and Strep tags; mature dimer purified on C18 RPC; copies: 1 + 1
T1 sequence (looked up) 1: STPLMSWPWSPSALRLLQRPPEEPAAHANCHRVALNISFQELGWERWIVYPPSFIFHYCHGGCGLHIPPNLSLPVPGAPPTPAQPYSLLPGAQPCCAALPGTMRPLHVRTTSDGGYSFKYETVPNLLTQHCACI
T1 sequence (looked up) 2: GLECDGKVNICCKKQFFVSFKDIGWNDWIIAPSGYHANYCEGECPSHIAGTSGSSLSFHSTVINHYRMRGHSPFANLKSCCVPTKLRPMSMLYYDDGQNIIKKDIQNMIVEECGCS
Assay: NMR titration; methyl 1H-13C SOFAST-HMQC of labelled BG_ZP-C (15-25 µM) with growth factors; 25 mM 2H-glycine pH 11.0 or 25 mM phosphate pH 6.0; 37 °C
Conditions: both partners purified

binding result: binds
B1: rat betaglycan ZP-C domain, bacterially expressed, isotopically labelled (domain or fragment, UniProt P26342 590-757, looked up)
chain: GNATFNMELYNTDLFLVPSPGVFSVAENEHVYVEVSVTKADQDLGFAIQTCFLSPYSNPDRMSDYTIIENICPKDDSVKFYSSKRVHFPIPHAEVDKKRFSFLFKSVFNTSLLFLHCELTLCSRKKGSLKLPRCVTPDDACTSLDATMIWTMMQNKKTFTKPLAVVLQ
modifications: 2H, 13C-methyl Isoleucine, Leucine, Valine (ILV) labeled
notes: betaglycan (TGFBR3), rat, residues 590-757 of NCBI NP_058952; A thrombin site lies between the Trx-His6 cassette and the domain; also called 13C-methyl-Ile BG_(ZP-C); ILV labeled BG_(ZP-C)
